These results are taken from PMC2613638 (The Journal of Biological Chemistry, 2009).

Values joined by “and” are separate entries in the source; they are usually repeats but may differ in a detail not shown here. Equal entries are not always repeated.

The target of one data set is T1, CPB (TAFIa) (Homo sapiens, UniProt Q96IY4).
T1 sequence (Q96IY4 115-423): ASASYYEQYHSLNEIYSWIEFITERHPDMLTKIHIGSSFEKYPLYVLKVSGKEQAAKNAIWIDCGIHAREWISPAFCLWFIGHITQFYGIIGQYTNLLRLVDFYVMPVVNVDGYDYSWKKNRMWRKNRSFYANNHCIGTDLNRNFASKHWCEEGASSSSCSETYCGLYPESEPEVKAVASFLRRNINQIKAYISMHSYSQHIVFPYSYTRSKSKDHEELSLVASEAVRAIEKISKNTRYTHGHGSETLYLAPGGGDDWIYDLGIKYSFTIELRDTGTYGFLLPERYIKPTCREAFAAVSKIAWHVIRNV
As to conditions: CPB cleavage of comparison peptides; cited from earlier work.

In the next data set the target is T2, CPN (Homo sapiens, UniProt P15169).
T2 sequence (P15169 21-458): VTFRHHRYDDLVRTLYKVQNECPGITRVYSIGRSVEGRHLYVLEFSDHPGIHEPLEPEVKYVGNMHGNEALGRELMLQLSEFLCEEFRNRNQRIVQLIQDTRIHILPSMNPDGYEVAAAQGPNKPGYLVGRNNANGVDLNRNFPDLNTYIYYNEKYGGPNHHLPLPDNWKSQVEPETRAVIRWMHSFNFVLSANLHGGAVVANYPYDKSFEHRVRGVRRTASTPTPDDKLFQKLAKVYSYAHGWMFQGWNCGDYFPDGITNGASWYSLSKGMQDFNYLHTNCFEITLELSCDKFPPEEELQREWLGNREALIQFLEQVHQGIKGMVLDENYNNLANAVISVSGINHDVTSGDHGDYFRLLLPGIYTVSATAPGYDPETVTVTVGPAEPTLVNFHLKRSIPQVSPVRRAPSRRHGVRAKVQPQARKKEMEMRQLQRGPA
The settings on record: CPN cleavage of comparison peptides; cited from earlier work.

In the next data set the test system is washed platelets. As to the kind of experiment: Chemerin release from washed platelets. Format: cell-based, human. The settings on record: 37 °C for 3 min; thrombin receptor-activating peptide 20 μM, collagen 10 μg/ml, ADP 10 μM; Fig. 6C.
The test system of another data set is Elastase. The settings on record: cited from earlier work.
For a further data set, the system named is Tryptase. The settings on record: cited from earlier work.
The subject of a further data set is Cathepsin G. As to conditions: cited from earlier work.
Another data set concerns Staphopain B. As to conditions: cited from earlier work.
In the next data set the test system is plasmin. As to the kind of experiment: plasmin. As to conditions: human.
Another data set relates to Human plasmin. As to the kind of experiment: plasmin. As to conditions: 37°, up to 30 min.
The subject of another data set is plasmin followed by CPB. Nature of the data set: plasmin. The settings on record: human, 37 °C, up to 30 min plasmin, then 30 min CPB.
Another data set relates to plasmin followed by CPN. Nature of the data set: plasmin. The settings on record: 37 °C, up to 30 min plasmin, then 30 min CPN.
For the next data set, the target named is T3, human CMKLR1 (Homo sapiens, UniProt Q99788).
T3 sequence (Q99788 1-373): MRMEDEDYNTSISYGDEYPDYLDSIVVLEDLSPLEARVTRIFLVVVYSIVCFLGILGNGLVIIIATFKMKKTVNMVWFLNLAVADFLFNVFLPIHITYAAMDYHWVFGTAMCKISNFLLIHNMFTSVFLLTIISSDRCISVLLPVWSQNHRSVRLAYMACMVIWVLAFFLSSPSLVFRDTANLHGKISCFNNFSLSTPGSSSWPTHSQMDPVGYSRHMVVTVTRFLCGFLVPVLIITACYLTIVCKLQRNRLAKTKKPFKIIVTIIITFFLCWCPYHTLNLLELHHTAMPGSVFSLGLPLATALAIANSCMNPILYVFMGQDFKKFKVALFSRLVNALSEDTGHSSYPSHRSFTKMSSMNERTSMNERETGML
As to the kind of experiment: In vitro transwell chemotaxis of CMKLR1/L1.2 transfectants. The data set is classed as cell-based.

On to “C5a^66-74: comparison substrate peptide derived from C5a (SHKDMQLGR; C5a anaphylatoxin; UniProt P01031 743-751, looked up, fragment)”, for which, in the data set with CPB (TAFIa), the Km is 219 ± 16.2 µM, the catalytic constant (kcat) was 29.5 ± 0.7 s⁻¹ and the kcat/Km is 130000 M⁻¹ s⁻¹. Also, in the data set with CPN, the Michaelis-Menten constant (Km) was 602 ± 74.3 µM, the turnover number (kcat) is 9.3 ± 0.4 s⁻¹ and the specificity constant (kcat/Km) is 15000 M⁻¹ s⁻¹.
For collagen, in the data set on washed platelets, the “release of chemerin from washed platelets” value was “induced the release of chemerin”.
With NH2-ADPELTEAQ...FAFSKALPRSPHHHHHH-COOH, the fragment found entry in the data set on Elastase was “...YFPGQFAFS (21-157) and ...YFPGQFA (21-155) and ...YFPG (21-152)”; in the data set on Tryptase it was “...YFPGQFAFSK (21-158) and ...YFPGQFA (21-155)”; with Cathepsin G, “...YFPGQFAF (21-156)”; in the data set with Staphopain B, “...YFPGQFAFS (21-157)”; with plasmin, “NH2-YFPGQFAFSK-COOH form (21-158)”.
On to YFPGQFAFSKALPRS, for which the fragment found in the data set on Human plasmin is on record as 10-mer (YFPGQFAFSK); in the data set on plasmin followed by CPB it was 9-mer (YFPGQFAFS); in the data set with plasmin followed by CPN it was 9-mer (YFPGQFAFS).
On to “Bradykinin (RPPGFSPFR; Bradykinin; UniProt P01042 381-389, looked up)”, for which, in the data set with CPB (TAFIa), the Km is 70.6 ± 4.8 µM, the kcat is 19.7 ± 4.8 s⁻¹ and the kcat/Km is 280000 M⁻¹ s⁻¹. In the data set with CPN, the Michaelis-Menten constant (Km) is 303 ± 29.1 µM, the kcat was 9.1 ± 0.2 s⁻¹ and the kcat/Km was 30000 M⁻¹ s⁻¹.
For the molecule thrombin, the “chemerin activities of PPP after addition of thrombin” value at human CMKLR1 (thrombin 5 units/ml added to PPP, 37 °C 5 min, Fig. 6B) is “had no effect”. Also, the “chemotaxis of CMKLR1-transfected cells” value at human CMKLR1 (thrombin itself) is “did not induce the chemotaxis”.
With `N=C(N)NCCSCC(CS)C(=O)O` (racemic) [MGTA, DL-2-Mercaptomethyl-3 guanidinoethylthiopropanoic acid], the “effect on PPP-induced increase of bioactivity of plasmin-cleaved prochemerin” value at human CMKLR1 (MGTA 5 μM in PPP, treated prochemerin 0.2 nM, Fig. 4B) is “inhibited”.
With “C3a^69-77: comparison substrate peptide derived from C3a (RASHLGLAR; C3a anaphylatoxin; UniProt P01024 740-748, looked up, fragment)”, in the data set with CPB (TAFIa), the Michaelis constant (Km) is 35.9 ± 6.6 µM, the kcat is 8.4 ± 0.6 s⁻¹ and the kcat/Km was 230000 M⁻¹ s⁻¹. In addition, in the data set with CPN, the Km was 77.1 ± 11.2 µM, the kcat was 57.9 ± 2.1 s⁻¹ and the kcat/Km is 750000 M⁻¹ s⁻¹.

B1: prochemerin: recombinant full-length prochemerin with carboxyl-terminal His6 tag, expressed in insect cells (protein, UniProt Q99969 21-163, looked up)
pro-form: ELTEAQRRGLQVALEEFHKHPPVQWAFQETSVESAVDTPFPAGIFVRLEFKLQQTSCRKRDWKKPECKVRPNGRKRKCLACIKLGSEDKVLGRLVHCPIETQVLREAEEHQETQCLRVQRAGEDPHSFYFPGQFAFSKALPRS
modifications: pro-form C-terminal His6 tag
Turning to B1, in the data set with human CMKLR1 (data not shown), the “CMKLR1-mediated chemotaxis after treatment with CPN and CPB alone” value is “did not induce CMKLR1-mediated chemotaxis”. The “chemotactic activity after sequential treatment with plasmin and CPN or CPB” value with human CMKLR1 (plasmin 1 μM, CPN or CPB 30 nM, final chemerin concentration 0.5 nM, Fig. 3B) is “dramatically enhanced”. Further, the “chemotactic bioactivity after plasmin alone” value in the data set with human CMKLR1 (prochemerin activation by plasmin, dose-response, Fig. 3A) is “increased its chemotactic bioactivity”.
